Substitutions are numbered along the chain they refer to. Numbers in names are those of the source. Where “and” joins values, the source holds several entries; their conditions need not be identical. Equal values may be shown once. Read-outs that look alike come from different tables or passages of the source.
B1: cpSRP43 ΔCD2ΔCD3 (CD1–Ank4 fragment) (domain or fragment)
chain: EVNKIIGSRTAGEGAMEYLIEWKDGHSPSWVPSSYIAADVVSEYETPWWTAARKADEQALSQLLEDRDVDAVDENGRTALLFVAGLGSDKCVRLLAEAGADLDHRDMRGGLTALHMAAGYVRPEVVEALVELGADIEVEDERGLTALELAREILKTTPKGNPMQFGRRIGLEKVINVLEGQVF
B2: cpSRP (chloroplast signal recognition particle, cpSRP43 with cpSRP54) (complex)
chain 1: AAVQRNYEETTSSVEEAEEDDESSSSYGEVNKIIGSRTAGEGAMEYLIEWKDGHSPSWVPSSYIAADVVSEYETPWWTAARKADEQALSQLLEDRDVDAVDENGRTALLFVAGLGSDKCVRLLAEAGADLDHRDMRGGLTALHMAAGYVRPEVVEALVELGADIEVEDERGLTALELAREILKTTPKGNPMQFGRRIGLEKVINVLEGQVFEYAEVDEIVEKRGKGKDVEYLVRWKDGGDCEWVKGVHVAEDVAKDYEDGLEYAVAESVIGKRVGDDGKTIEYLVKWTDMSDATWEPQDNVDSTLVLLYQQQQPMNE
chain 2: EMFGQLTGGLEAAWSKLKGEEVLTKDNIAEPMRDIRRALLEADVSLPVVRRFVQSVSDQAVGMGVIRGVKPDQQLVKIVHDELVKLMGGEVSELQFAKSGPTVILLAGLQGVGKTTVCAKLACYLKKQGKSCMLIAGDVYRPAAIDQLVILGEQVGVPVYTAGTDVKPADIAKQGLKEAKKNNVDVVIMDTAGRLQIDKGMMDELKDVKKFLNPTEVLLVVDAMTGQEAAALVTTFNVEIGITGAILTKLDGDSRGGAALSVKEVSGKPIKLVGRGERMEDLEPFYPDRMAGRILGMGDVLSFVEKATEVMRQEDAEDLQKKIMSAKFDFNDFLKQTRAVAKMGSMTRVLGMIPGMGKVSPAQIREAEKNLLVMEAMIEVMTPEERERPELLAESPERRKRIAKDSGKTEQQVSALVAQIFQMRVKMKNLMGVMEGGSIPALSGLEDALKAEQKAPPGTARRKRKADSRKKFVESASSKPGPRGFGSGN
B3: cpSRP-R161A (cpSRP assembled from cpSRP43-R161A and cpSRP54) (complex)
chain 1: B2 chain 1 with R105A
chain 2: B2 chain 2
B4: cpSRP-Y204A (cpSRP assembled from cpSRP43-Y204A and cpSRP54) (complex)
chain 1: B2 chain 1 with Y148A
chain 2: B2 chain 2

Assays:
[1] = target: LHCP (light-harvesting chlorophyll a/b binding protein), fluorescein-labeled (UniProt P07371 38-269); assay: fluorescence polarisation
[2] = target: LHCP (light-harvesting chlorophyll a/b binding protein), fluorescein-labeled (UniProt P07371 38-269); assay: fluorescence polarisation; remark: listed apart in the source

| Binder | Kd [1] [nM] | Kd [2] |
| --- | --- | --- |
| B1 | > 10000 | – |
| B2 | – | 76 nM and 128 nM |
| B3 | – | 1200 nM |
| B4 | – | > 5000 nM |
